Test system: Escherichia coli TOP10
Assay: shrunken log2 fold change of peptide-encoding DNA abundance (4.5 h post-induction vs induction); higher = less antimicrobial activity (less host growth inhibition)
Settings: time post-induction: 4.5 h; library: site-saturation at positions 5, 18, 19, 20
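Also: peptides expressed intracellularly from a pBAD plasmid library in pooled LB shake-flask culture, induced with 0.3% L-arabinose, DNA abundance read by NGS, three biological replicates, DESeq2 with apeglm shrinkage.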

RRIRHRPPRLPRPRPRPWLNPRP
shrunken log2 fold change: -0.0017

RRIRHRPPRLPRPRPRPWMAPRP
shrunken log2 fold change: -0.347

RRIRHRPPRLPRPRPRPWNGPRP
shrunken log2 fold change: -0.228

RRIRHRPPRLPRPRPRPWPLPRP
shrunken log2 fold change: -0.306

RRIRHRPPRLPRPRPRPWRAPRP
shrunken log2 fold change: -0.0415

RRIRHRPPRLPRPRPRPWRKPRP
shrunken log2 fold change: -0.00968

RRIRHRPPRLPRPRPRPWRLPRP
shrunken log2 fold change: -0.0125

RRIRHRPPRLPRPRPRPWRVPRP
shrunken log2 fold change: 0.0326

RRIRHRPPRLPRPRPRPWTDPRP
shrunken log2 fold change: -0.0171

RRIRHRPPRLPRPRPRPWTGPRP
shrunken log2 fold change: -0.104

RRIRHRPPRLPRPRPRPWVKPRP
shrunken log2 fold change: -0.0135

RRIRHRPPRLPRPRPRPWYDPRP
shrunken log2 fold change: 0.0351

RRIRHRPPRLPRPRPRPWYKPRP
shrunken log2 fold change: -1.2

RRIRHRPPRLPRPRPRPYCQPRP
shrunken log2 fold change: -0.746

RRIRHRPPRLPRPRPRPYCTPRP
shrunken log2 fold change: -0.18

RRIRHRPPRLPRPRPRPYCVPRP
shrunken log2 fold change: -0.154

RRIRHRPPRLPRPRPRPYDKPRP
shrunken log2 fold change: -0.961

RRIRHRPPRLPRPRPRPYDPPRP
shrunken log2 fold change: -0.00884

RRIRHRPPRLPRPRPRPYELPRP
shrunken log2 fold change: -0.116

RRIRHRPPRLPRPRPRPYFMPRP
shrunken log2 fold change: -0.489

RRIRHRPPRLPRPRPRPYGQPRP
shrunken log2 fold change: -0.00191

RRIRHRPPRLPRPRPRPYHGPRP
shrunken log2 fold change: -0.0161

RRIRHRPPRLPRPRPRPYHIPRP
shrunken log2 fold change: -0.045

RRIRHRPPRLPRPRPRPYIIPRP
shrunken log2 fold change: -0.855

RRIRHRPPRLPRPRPRPYLTPRP
shrunken log2 fold change: -0.556

RRIRHRPPRLPRPRPRPYMQPRP
shrunken log2 fold change: -0.476

RRIRHRPPRLPRPRPRPYPDPRP
shrunken log2 fold change: 0.0372

RRIRHRPPRLPRPRPRPYRAPRP
shrunken log2 fold change: -0.258

RRIRHRPPRLPRPRPRPYSRPRP
shrunken log2 fold change: -0.0123

RRIRHRPPRLPRPRPRPYTWPRP
shrunken log2 fold change: -1.02

RRIRHRPPRLPRPRPRPYVNPRP
shrunken log2 fold change: -0.0772

RRIRHRPPRLPRPRPRPYWIPRP
shrunken log2 fold change: -0.124

RRIRHRPPRLPRPRPRPYWWPRP
shrunken log2 fold change: -0.196

RRIRIRPPRLPRPRPRPACNPRP
shrunken log2 fold change: -0.363

RRIRIRPPRLPRPRPRPADGPRP
shrunken log2 fold change: 0.276

RRIRIRPPRLPRPRPRPAEHPRP
shrunken log2 fold change: 0.0405

RRIRIRPPRLPRPRPRPAEQPRP
shrunken log2 fold change: -0.0532

RRIRIRPPRLPRPRPRPAFNPRP
shrunken log2 fold change: -0.0935

RRIRIRPPRLPRPRPRPAGDPRP
shrunken log2 fold change: 0.0386

RRIRIRPPRLPRPRPRPAGLPRP
shrunken log2 fold change: -0.0628

RRIRIRPPRLPRPRPRPAHCPRP
shrunken log2 fold change: 0.0837

RRIRIRPPRLPRPRPRPAHNPRP
shrunken log2 fold change: -0.271

RRIRIRPPRLPRPRPRPAIDPRP
shrunken log2 fold change: -0.239

RRIRIRPPRLPRPRPRPAIIPRP
shrunken log2 fold change: -1.09

RRIRIRPPRLPRPRPRPAKSPRP
shrunken log2 fold change: -0.0109

RRIRIRPPRLPRPRPRPAMMPRP
shrunken log2 fold change: -0.105

RRIRIRPPRLPRPRPRPAMNPRP
shrunken log2 fold change: -0.495

RRIRIRPPRLPRPRPRPAMQPRP
shrunken log2 fold change: 0.0843

RRIRIRPPRLPRPRPRPANMPRP
shrunken log2 fold change: -0.45

RRIRIRPPRLPRPRPRPARRPRP
shrunken log2 fold change: 0.72

RRIRIRPPRLPRPRPRPASGPRP
shrunken log2 fold change: 0.0837

RRIRIRPPRLPRPRPRPATDPRP
shrunken log2 fold change: -0.161

RRIRIRPPRLPRPRPRPATPPRP
shrunken log2 fold change: 0.0979

RRIRIRPPRLPRPRPRPAWHPRP
shrunken log2 fold change: 0.031

RRIRIRPPRLPRPRPRPCAHPRP
shrunken log2 fold change: 0.0482

RRIRIRPPRLPRPRPRPCANPRP
shrunken log2 fold change: -0.234

RRIRIRPPRLPRPRPRPCCKPRP
shrunken log2 fold change: -0.398

RRIRIRPPRLPRPRPRPCCMPRP
shrunken log2 fold change: -0.614

RRIRIRPPRLPRPRPRPCDCPRP
shrunken log2 fold change: -0.0657

RRIRIRPPRLPRPRPRPCEDPRP
shrunken log2 fold change: -0.424

— the supplement of paper PMC9112550, “Optimization of the antimicrobial peptide Bac7 by deep mutational scanning” (BMC Biology, 2022)
